Measurements published in US20210253718A1, “FRIZZLED5 PROTEIN-BINDING AGENTS” (Modmab Therapeutics Corporation, priority 2016, published 2021).
Residue numbers refer to the chain shown, from its start.

T1: FZD9 CRD (Homo sapiens, UniProt O00144)
T1 construct: G35-A161; GPI anchor signal (C); expressed in transfected cells; host or cells: CHO cells, lentiviral pLenti-puro
T1 sequence (O00144 35-161): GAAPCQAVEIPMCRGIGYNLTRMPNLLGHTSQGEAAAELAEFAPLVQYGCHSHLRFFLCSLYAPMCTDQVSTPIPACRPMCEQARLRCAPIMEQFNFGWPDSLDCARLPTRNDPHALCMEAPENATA

T2: FZD10 CRD (Homo sapiens, UniProt Q9ULW2)
T2 construct: 30-156; GPI anchor signal (C); expressed in transfected cells; host or cells: CHO cells, lentiviral pLenti-puro
T2 sequence (Q9ULW2 30-156): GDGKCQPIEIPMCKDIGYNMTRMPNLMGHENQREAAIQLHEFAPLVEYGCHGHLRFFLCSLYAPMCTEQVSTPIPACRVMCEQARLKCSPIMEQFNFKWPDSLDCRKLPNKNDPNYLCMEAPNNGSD

T3: FZD6 CRD (Homo sapiens, UniProt O60353)
T3 construct: S20-P146; GPI anchor signal (C); expressed in transfected cells; host or cells: CHO cells, lentiviral pLenti-puro
T3 sequence (O60353 20-146): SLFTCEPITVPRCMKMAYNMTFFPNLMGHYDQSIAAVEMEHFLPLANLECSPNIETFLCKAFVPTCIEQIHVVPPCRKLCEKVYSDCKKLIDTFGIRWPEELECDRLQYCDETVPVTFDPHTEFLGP

T4: FZD8 CRD (Homo sapiens, UniProt Q9H461)
T4 construct: K31-D155; GPI anchor signal (C); expressed in transfected cells; host or cells: CHO cells, lentiviral pLenti-puro
T4 sequence (Q9H461 31-155): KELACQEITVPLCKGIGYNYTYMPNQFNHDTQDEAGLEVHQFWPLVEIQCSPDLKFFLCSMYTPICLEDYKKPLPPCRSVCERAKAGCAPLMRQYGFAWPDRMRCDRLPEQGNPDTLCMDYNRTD

B1: Fab-2911: anti-FZD5 Fab with antibody variable region Fv-2911; CDR SEQ ID NOs: 35, 36, 50, 89, 126, 163 (antibody, V domains shown)
VH: EVQLVESGGGLVQPGGSLRLSCAASGFNIYYSSMHWVRQAPGKGLEWVAYIYPYSGYTSYADSVKGRFTISADTSKNTAYLQMNSLRAEDTAVYYCARYFWWYGFDYWGQGTLVTVSS
VL: DIQMTQSPSSLSASVGDRVTITCRASQSVSSAVAWYQQKPGKAPKLLIYSASSLYSGVPSRFSGSRSGTDFTLTISSLQPEDFATYYCQQGPWYPFTFGQGTKVEIK
B2: Fab-2898: anti-FZD5 Fab with antibody variable region Fv-2898; CDR SEQ ID NOs: 35, 36, 37, 76, 113, 152 (antibody, V domains shown)
VH: EVQLVESGGGLVQPGGSLRLSCAASGFNIYSYSMHWVRQAPGKGLEWVASIYSSSGSTSYADSVKGRFTISADTSKNTAYLQMNSLRAEDTAVYYCARAVWGLDYWGQGTLVTVSS
VL: DIQMTQSPSSLSASVGDRVTITCRASQSVSSAVAWYQQKPGKAPKLLIYSASSLYSGVPSRFSGSRSGTDFTLTISSLQPEDFATYYCQQWWGYYSLITFGQGTKVEIK
B3: Fab-2925: anti-FZD5 Fab with antibody variable region Fv-2925; CDR SEQ ID NOs: 35, 36, 64, 102, 140, 172 (antibody, V domains shown)
VH: EVQLVESGGGLVQPGGSLRLSCAASGFNLSYSSMHWVRQAPGKGLEWVASIYPSYGSTYYADSVKGRFTISADTSKNTAYLQMNSLRAEDTAVYYCARYGYFGLDYWGQGTLVTVSS
VL: B2 VL with W91A, G93V, Y95A, I98F
B4: Fab-2899: anti-FZD5 Fab with antibody variable region Fv-2899; CDR SEQ ID NOs: 35, 36, 38, 77, 114, 153 (antibody, V domains shown)
VH: EVQLVESGGGLVQPGGSLRLSCAASGFNLYYYYMHWVRQAPGKGLEWVASIYPSSGSTSYADSVKGRFTISADTSKNTAYLQMNSLRAEDTAVYYCARGALDYWGQGTLVTVSS
VL: B2 VL with W92Y, G93S, Y94S, S96G

Target: T1, FZD9 CRD
Assay: Immunofluorescence of anti-FZD5 Fab binding to CHO cells overexpressing Frizzled CRD
Parameters: key: −: no binding; +: very weak binder; ++: weak binder; +++: good binder; ++++: very good binder
Settings: not given
Protocol: (§1) Plasmids: pLCKO lentiviral vector used for knockout (TKO) library construction and expression of individual gRNAs was constructed as described previously (Hart et al., 2015). Briefly, single guide RNA (sgRNA) scaffold was amplified from px330 (Addgene 42230) and cloned into pLKO.TRC005 lentiviral vector (Broad Institute, Cambridge, Mass.) using AgeI/EcoRI restriction sites. BfuAI sites were added at the 5′ end of the sgRNA scaffold for cloning the TKO library or individual gRNA target sequences. Lenti Cas9-2A-BsdR vector used to generate Cas9 stable expression cell lines was constructed as described previously (Hart et al., 2015). Briefly, lentiCRISPR pXPR_001 (Addgene 49535) was modified through removal of the sgRNA scaffold region through NdeI/EcoRI digest and blunt ends generation using Large Klenow Fragment (NEB). 2A-puro was replaced with 2A-BsdR by PCR using the NheI/MluI sites. Each of the 10 human Frizzled cysteine rich domains (CRDs) were cloned into the lentiviral expression plasmid pLenti-puro in the following cassette: FZD_CRD-MYC-GPI.
(§2) To confirm that the FZD5-WNT7B circuit is not driven simply by expression and rule out the possibility of a disconnect between RNA and protein levels for the Wnt receptors in HPAF-II cells, a panel of recombinant Fabs were generated, alternatively referred to herein as ‘Frizzled profiler’, that can detect and discriminate all but one of the ten Frizzled receptors. […] To characterize the binding specificity of these Fabs on cells, a panel of 10 CHO cell lines was generated, each expressing the CRD domain of a different myc-tagged Frizzled family member anchored at the plasma membrane through a GPI anchor (CHO-myc-FZDGPI). Despite the high sequence identity between Frizzled family members (FIG. 7A, FIG. 7B), selective Fabs were identified for FZD4, FZD5, FZD6 and FZD10 as assessed by immunofluorescence and flow cytometry (FIG. 7D and FIG. 8). […] The FZD8 CRD is most homologous to that of FZD5 (FIG. 7B). These Fabs can be used to discriminate expression of FZD1, FZD2, FZD4, FZD5, FZD6, FZD7, FZD8, FZD9 and FZD10 (FIG. 7D and FIG. 8). The ‘Frizzled profiler’ therefore consists of 10 different Fabs that can be used to discriminate expression of 9 different Frizzled family members. The Frizzled profiler was then used to confirm that HPAF-II cells express FZD1, FZD5, FZD6 and possibly FZD8 (FIG. 7E).
(§3) The binding of anti-FZD5 Fabs to cell surface-expressed Frizzled protein was further determined for each member of the Frizzled family via flow cytometry and immunofluorescence analysis of a panel of 10 CHO cell lines, each ectopically over-expressing the extracellular cysteine-rich domain (CRD) of a different Frizzled protein family member.

Molecule | Immunofluorescence binding, Frizzled CRD overexpressed on CHO cells: FZD9
B1 | −
B2 | −
B3 | −
B4 | −

Target: T2, FZD10 CRD
Assay: as above
Parameters: key: −: no binding; +: very weak binder; ++: weak binder; +++: good binder; ++++: very good binder
Settings: not given
Protocol: as §1, §2, §3

Molecule | Immunofluorescence binding, Frizzled CRD overexpressed on CHO cells: FZD10
B1 | −
B2 | −
B3 | −
B4 | −

Target: T5, FZD2 CRD (Homo sapiens, UniProt Q14332)
T5 construct: D35-P161; GPI anchor signal (C); expressed in transfected cells; host or cells: CHO cells, lentiviral pLenti-puro
Assay: as above
Parameters: key: −: no binding; +: very weak binder; ++: weak binder; +++: good binder; ++++: very good binder
Settings: not given
Protocol: as §1, §2, §3

Molecule | Immunofluorescence binding, Frizzled CRD overexpressed on CHO cells: FZD2
B1 | +++
B2 | +++
B4 | +++

Target: T3, FZD6 CRD
Assay: as above
Parameters: key: −: no binding; +: very weak binder; ++: weak binder; +++: good binder; ++++: very good binder
Settings: not given
Protocol: as §1, §2, §3

Molecule | Immunofluorescence binding, Frizzled CRD overexpressed on CHO cells: FZD6
B1 | −
B2 | −
B3 | −
B4 | −

Target: T4, FZD8 CRD
Assay: as above
Parameters: key: −: no binding; +: very weak binder; ++: weak binder; +++: good binder; ++++: very good binder
Settings: not given
Protocol: as §1, §2, §3

Molecule | Immunofluorescence binding, Frizzled CRD overexpressed on CHO cells: FZD8
B1 | −
B2 | +
B3 | −
B4 | +

Tested on: ASPC-1 cells
Assay: Effect of anti-FZD5 Fabs on proliferation of pancreatic cancer cell lines (percent growth inhibition)
Format: cell-based, human
Settings: Fab 2 μg/ml

Molecule | percent growth inhibition, ASPC-1 2 μg/ml [%]
B1 | 3.18
B2 | 11.14
B3 | −0.26
B4 | 37.97

Tested on: PATU8988S cells
Assay: as above
Format: cell-based, human
Settings: Fab 2 μg/ml

Molecule | percent growth inhibition, PATU8988s 2 μg/ml [%]
B1 | 8.24
B2 | 4.53
B3 | −8.12
B4 | 4.94

Tested on: RWP1 cells
Assay: as above
Format: cell-based, human
Settings: Fab 2 μg/ml

Molecule | percent growth inhibition, RWP1 2 μg/ml [%]
B1 | 20.34
B2 | 21.46
B3 | 30.69
B4 | 37.95

Tested on: PATU8988S cells
Assay: as above
Format: cell-based, human
Settings: Fab 10 μg/ml
Protocol: (§4) The effect of presently disclosed anti-FZD5 Fabs on proliferation of RNF43 loss-of-function mutant pancreatic cancer cell lines HPAFII, PATU8988S and ASPC-1; and on pancreatic cancer cell line RWP1, was tested at […] and 10 μg/ml.

Molecule | percent growth inhibition, PATU8988s 10 μg/ml [%]
B2 | 0.97
B3 | −22.86
B4 | −3.10

Tested on: HPAFII cells
Assay: as above
Format: cell-based, human
Settings: Fab 2 μg/ml
Protocol: as §4

Molecule | percent growth inhibition, HPAFII 2 μg/ml [%]
B1 | 2.08
B2 | 15.80
B3 | −11.24
B4 | 36.18

Same assay, conditions: Fab 10 μg/ml

Molecule | percent growth inhibition, HPAFII 10 μg/ml [%]
B2 | 21.87
B3 | −17.38
B4 | 55.71

Tested on: ASPC-1 cells
Assay: as above
Format: cell-based, human
Settings: Fab 10 μg/ml
Protocol: as §4

Molecule | percent growth inhibition, ASPC-1 10 μg/ml [%]
B2 | 25.15
B3 | −3.44
B4 | 33.63

Tested on: RWP1 cells
Assay: as above
Format: cell-based, human
Settings: Fab 10 μg/ml
Protocol: as §4

Molecule | percent growth inhibition, RWP1 10 μg/ml [%]
B2 | 26.93
B3 | 33.53
B4 | 47.83
